Source: patent US8043804

Sequence of acetylated p53, P04637 (P04637 whole entry, looked up): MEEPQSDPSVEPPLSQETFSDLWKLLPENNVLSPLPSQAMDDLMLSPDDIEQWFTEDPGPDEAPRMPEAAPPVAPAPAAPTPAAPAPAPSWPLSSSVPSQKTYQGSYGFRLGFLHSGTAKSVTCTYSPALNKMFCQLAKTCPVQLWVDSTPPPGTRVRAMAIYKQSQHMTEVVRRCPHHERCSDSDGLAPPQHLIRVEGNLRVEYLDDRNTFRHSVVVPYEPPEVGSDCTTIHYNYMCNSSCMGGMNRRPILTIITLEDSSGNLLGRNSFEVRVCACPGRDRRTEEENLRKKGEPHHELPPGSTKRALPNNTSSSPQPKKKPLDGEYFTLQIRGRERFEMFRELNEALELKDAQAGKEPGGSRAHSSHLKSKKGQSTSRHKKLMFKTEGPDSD

B1: Flag-SIRT1 (protein)
chain: MADEAALALQPGGSPSAAGADREAASSPAGEPLRKRPRRDGPGLERSPGEPGGAAPEREVPAAARGCPGAAAAALWREAEAEAAAAGGEQEAQATAAAGEGDNGPGLQGPSREPPLADNLYDEDDDDEGEEEEEAAAAAIGYRDNLLFGDEIITNGFHSCESDEEDRASHASSSDWTPRPRIGPYTFVQQHLMIGTDPRTILKDLLPETIPPPELDDMTLWQIVINILSEPPKRKKRKDINTIEDAVKLLQECKKIIVLTGAGVSVSCGIPDFRSRDGIYARLAVDFPDLPDPQAMFDIEYFRKDPRPFFKFAKEIYPGQFQPSLCHKFIALSDKEGKLLRNYTQNIDTLEQVAGIQRIIQCHGSFATASCLICKYKVDCEAVRGDIFNQVVPRCPRCPADEPLAIMKPEIVFFGENLPEQFHRAMKYDKDEVDLLIVIGSSLKVRPVALIPSSIPHEVPQILINREPLPHLHFDVELLGDCDVIINELCHRLGGEYAKLCCNPVKLSEITEKPPRTQKELAYLSELPPTPLHVSEDSSSPERTSPPDSSVIVTLLDQAAKSNDDLDVSESKGCMEEKPQEVQTSRNVESIAEQMENPDLKNVGSSTGEKNERTSVAGTVRKCWPNRVAKEQISRRLDGNQYLFLPPNRYIFHGAEVYSDSEDDVLSSSSCGSNSDSGTCQSPSLEEPMEDESEIEEFYNGLEDEPDVPERAGGAGFGTDGDDQEAINEAISVKQEVTDMNYPSNKS
- in vitro deacetylation assay (Western blot for acetylated p53) (acetylated p53, P04637): deacetylation of p53 was observed when the Flag-SIRT1 protein was incubated with acetylated p53

B2: Flag-SIRT2 (protein)
chain: MAEPDPSHPLETQAGKVQEAQDSDSDSEGGAAGGEADMDFLRNLFSQTLSLGSQKERLLDELTLEGVARYMQSERCRRVICLVGAGISTSAGIPDFRSPSTGLYDNLEKYHLPYPEAIFEISYFKKHPEPFFALAKELYPGQFKPTICHYFMRLLKDKGLLLRCYTQNIDTLERIAGLEQEDLVEAHGTFYTSHCVSASCRHEYPLSWMKEKIFSEVTPKCEDCQSLVKPDIVFFGESLPARFFSCMQSDFLKVDLLLVMGTSLQVQPFASLISKAPLSTPRLLINKEKAGQSDPFLGMIMGLGGGMDFDSKKAYRDVAWLGECDQGCLALAELLGWKKELEDLVRREHASIDAQSGAGVPNPSTSASPKKSPPPAKDEARTTEREKPQ
- in vitro deacetylation assay (acetylated tubulin): deacetylation of tubulin was observed when the purified SIRT2 protein was incubated with acetylated tubulin
